Data published in PMC6349121, “Structural insights into non-covalent ubiquitin activation of the cIAP1-UbcH5B∼ubiquitin complex” (The Journal of Biological Chemistry, 2018).

Experiments:
[1] = target: T1, UbcH5B S22R C85K covalently linked to Ub (UbcH5B_(S22R)–Ub) (human, UniProt P62837 1-147; P0CG47 1-76, S22R | C85K, Lys85 (C85K) in a stable amide linkage to Ub | covalently linked to Lys85 of UbcH5B S22R C85K (amide linkage)); experiment: SPR; as a1, but UbcH5B–Ub variants diluted in running buffer containing 0.6 mM UbΔGG; GST-cIAP1R coupled to a CM-5 chip, 25 °C; steady-state affinity analysis; settings: both partners purified
T1 construct: UbcH5B, human Ub-conjugating enzyme (E2); ubiquitin (Ub), human, donor Ub; source: E. coli BL21 (DE3) Gold

[2] = target: T1, UbcH5B S22R C85K covalently linked to …; experiment: SPR; GST-cIAP1R coupled to a CM-5 chip, Biacore T200, 25 °C; analytes diluted in 25 mM Tris-HCl pH 7.6, 150 mM NaCl, 0.1 mg/ml BSA, 1 mM DTT, 0.005% Tween 20; GST alone subtracted; steady-state affinity analysis; settings: both partners purified
[3] = target: T2, UbcH5B C85K covalently linked to Ub (UbcH5B–Ub) (human, UniProt P62837 1-147; P0CG47 1-76, C85K, Lys85 (C85K) in a stable amide linkage to Ub | covalently linked to Lys85 of UbcH5B C85K (amide linkage)); experiment: as above; settings: both partners purified
T2 construct: UbcH5B, human Ub-conjugating enzyme (E2); ubiquitin (Ub), human, donor Ub (Ub^D); the model of 6HPR holds residues 1-76; source: E. coli BL21 (DE3) Gold

UbcH5B = target: T3, UbcH5B (human, UniProt P62837 1-147); experiment: as above; settings: both partners purified
T3 construct: UbcH5B, human Ub-conjugating enzyme (E2), untagged; also called UbcH5B WT

ubiquitin (Ub) = target: T4, ubiquitin (Ub) (human, UniProt P0CG47 1-76); experiment: crystal structure; cIAP1R, UbcH5B–Ub and Ub mixed at 1:1:1.2 molar ratio; sitting drop, 0.2 M ammonium fluoride, 15% PEG 3350, 19 °C; 1.7 Å; dimer generated by crystallographic symmetry; settings: both partners purified
T4 construct: ubiquitin (Ub), human; in the model of 6HPR Ub^B is chain B (residues 1-74 seen) and Ub^D chain D (residues 1-76); Free Ub was mixed into the crystallised complex as Ub^B; in the rows on Ub^D it stands for the Ub part of the conjugate m4; also called WT Ub

[4] = target: the molecule itself; experiment: as above

Row | Kd [1] [nM] | Kd [2] [nM] | Kd [3] [nM] | Kd (UbcH5B) [nM] | binding result (ubiquitin (Ub)) | Binder | binding result [4]
1 | 990 ± 50 | 900 ± 10 | 830 ± 50 | 223000 ± 4000 | – | GST-cIAP1R (cIAP1 RING domain, residues 556-C, with GST) (domain or fragment, human, UniProt Q13490 556-618, looked up, pGEX4T1 with a TEV site after GST; the tag is not cleaved in this form; source: E. coli BL21 (DE3) Gold; not shown: GST, N-terminal, kept) LSLEEQLRRLQEERTCKVCMDKEVSVVFIPCGHLVVCQECAPSLRKCPICRGIIKGTVRTFLS | –
2 | – | – | – | – | binds | cIAP1 RING domain (residues 556-C; cIAP1R) (domain or fragment, human, UniProt Q13490 556-618, looked up, Homodimer through the RING domain; in the crystal the dimer is generated by crystallographic symmetry; also called cIAP1 RING dimer; not shown: GST, N-terminal, cleaved) LSLEEQLRRLQEERTCKVCMDKEVSVVFIPCGHLVVCQECAPSLRKCPICRGIIKGTVRTFLS | binds
